The source of these data is patent US20100260668A1 (published 2010).

For assay [1], the target named is T1, DLL4 ECD His tag (UniProt Q9NR61 27-529, limits assumed).
T1 construct: extracellular domain; also called DLL ECD His tag
As to the kind of experiment: SPR (Biacore), DVD-Ig captured, DLL4 as analyte.

The target in assay [2] is T2, VEGF (UniProt P15692-4 27-191).
T2 construct: Bought reagent; also called vascular endothelial growth factor
Nature of the assay: SPR (Biacore), DVD-Ig captured, VEGF in solution. On the technique in general: SPR reads the build-up and loss of mass on a sensor chip optically.

T2 sequence (P15692 other isoform, or with tags, fused parts or gaps limits assumed): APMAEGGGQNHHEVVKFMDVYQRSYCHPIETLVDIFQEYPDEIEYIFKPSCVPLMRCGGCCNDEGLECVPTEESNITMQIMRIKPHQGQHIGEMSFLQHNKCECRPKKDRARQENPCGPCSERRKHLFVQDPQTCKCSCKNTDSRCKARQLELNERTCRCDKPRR

B1: DVD490 (bispecific antibody, human IgG1, kappa)
heavy: not shown
light: DIQMTQSPSSLSASVGDRVTITCRASQDVSTAVAWYQQKPGKAPKLLIYSASFLYSGVPSRFSGSGSGTDFTLTISSLQPEDFATYYCQQSYTTPPTFGQGTKVEIKRTVAAPDIQMTQSSSYLSVSLGGRVTITCKASDHINNWLAWYQQKPGNAPRLLISGATSLETGVPSRFSGSGSGKDYTLSITSLQTEDVATYYCQQYWSIPLTFGAGTKLELKRTVAAPSVFIFPPSDEQLKSGTASVVCLLNNFYPREAKVQWKVDNALQSGNSQESVTEQDSKDSTYSLSSTLTLSKADYEKHKVYACEVTHQGLSSPVTKSFNRGEC
notes: HC linker short, LC linker short; also called DVD-Ig DVD490
In assay [1], B1 came in with a dissociation constant Kd of 0.528 nM, an off-rate (koff) of 7.7e-05 s⁻¹ and a kon of 146000 M⁻¹ s⁻¹.

B2: DVD502 (bispecific antibody, human IgG1, kappa)
heavy: not shown
light: B1 light
notes: HC linker long, LC linker short; also called DVD-Ig DVD502
B2: in assay [1], the dissociation constant (Kd) stood at 0.807 nM, the dissociation rate constant (koff) was 7.43e-05 s⁻¹ and the on-rate constant (kon) worked out at 92100 M⁻¹ s⁻¹.

B3: DVD446 (bispecific antibody, human IgG1, kappa)
heavy: not shown
light: DIQMTQSPSSLSASVGDRVTITCRASQVIRRSLAWYQQKPGKAPKLLIYAASNLASGVPSRFSGSGSGTDFTLTISSLQPEDFATYYCQQSNTSPLTFGQGTKVEIKRTVAAPDIVMTQSPDSLAVSLGERATISCRASESVDNYGISFMKWFQQKPGQPPKLLIYAASNQGSGVPDRFSGSGSGTDFTLTISSLQAEDVAVYYCQQSKEVPWTFGGGTKVEIKRTVAAPSVFIFPPSDEQLKSGTASVVCLLNNFYPREAKVQWKVDNALQSGNSQESVTEQDSKDSTYSLSSTLTLSKADYEKHKVYACEVTHQGLSSPVTKSFNRGEC
notes: DVD-Ig; N-term; VD AB071 (VEGF), C-term; VD AB069 (DLL4); HC linker short, LC linker short; also called DVD446H; DVD446L
In assay [2], B3 came in with a dissociation constant Kd of 0.000297 nM, a dissociation rate constant (koff) of 3.62e-08 s⁻¹ and a kon of 122000 M⁻¹ s⁻¹.

B4: DVD462 (bispecific antibody, human IgG1, kappa)
heavy: not shown
light: DIQMTQSPSSLSASVGDRVTITCRASQDVSTAVAWYQQKPGKAPKLLIYSASFLYSGVPSRFSGSGSGTDFTLTISSLQPEDFATYYCQQSYTTPPTFGQGTKVEIKRTVAAPSVFIFPPDIVMTQSPDSLAVSLGERATISCRASESVDNYGISFMKWFQQKPGQPPKLLIYAASNQGSGVPDRFSGSGSGTDFTLTISSLQAEDVAVYYCQQSKEVPWTFGGGTKVEIKRTVAAPSVFIFPPSDEQLKSGTASVVCLLNNFYPREAKVQWKVDNALQSGNSQESVTEQDSKDSTYSLSSTLTLSKADYEKHKVYACEVTHQGLSSPVTKSFNRGEC
notes: HC linker short, LC linker long; also called DVD-Ig DVD462
With B4, in assay [1], binding was characterised by a dissociation constant (Kd) of 2.98 nM, the dissociation rate constant (koff) came to 0.00025 s⁻¹ and the kon was determined as 83900 M⁻¹ s⁻¹.

B5: DVD514 (bispecific antibody, human IgG1, lambda)
heavy: not shown
light: DIQMTQSPSSLSASVGDRVTITCRASQDVSTAVAWYQQKPGKAPKLLIYSASFLYSGVPSRFSGSGSGTDFTLTISSLQPEDFATYYCQQSYTTPPTFGQGTKVEIKRTVAAPQAVVTQESALTTSPGETVTLTCRSSTGAVTTSNYANWVQEKPDHLFTGLIGGTNNRAPGVPARFSGSLIGDKAALTITGAQTEDEAIYFCALWYSNHWVFGGGTKLTVLGQPKAAPSVTLFPPSSEELQANKATLVCLISDFYPGAVTVAWKADSSPVKAGVETTTPSKQSNNKYAASSYLSLTPEQWKSHRSYSCQVTHEGSTVEKTVAPTECS
notes: HC linker short, LC linker short; also called DVD-Ig DVD514
In assay [1], B5 showed a dissociation constant Kd of 3.48 nM, an off-rate (koff) of 0.000432 s⁻¹ and an on-rate (kon) of 124000 M⁻¹ s⁻¹.

B6: DVD526 (bispecific antibody, human IgG1, lambda)
heavy: not shown
light: B5 light
notes: HC linker long, LC linker short; also called DVD-Ig DVD526
For B6, in assay [1], the Kd was found to be 5.55 nM, the koff was 0.000629 s⁻¹ and the kon is 113000 M⁻¹ s⁻¹.

B7: DVD496 (bispecific antibody, human IgG1, kappa)
heavy: not shown
light: DIQMTQSPSSLSASVGDRVTITCRASQDVSTAVAWYQQKPGKAPKLLIYSASFLYSGVPSRFSGSGSGTDFTLTISSLQPEDFATYYCQQSYTTPPTFGQGTKVEIKRTVAAPSVFIFPPDIQMTQSSSYLSVSLGGRVTITCKASDHINNWLAWYQQKPGNAPRLLISGATSLETGVPSRFSGSGSGKDYTLSITSLQTEDVATYYCQQYWSIPLTFGAGTKLELKRTVAAPSVFIFPPSDEQLKSGTASVVCLLNNFYPREAKVQWKVDNALQSGNSQESVTEQDSKDSTYSLSSTLTLSKADYEKHKVYACEVTHQGLSSPVTKSFNRGEC
notes: HC linker long, LC linker long; also called DVD-Ig DVD496
In assay [1], B7 showed a Kd of 1.44 nM, a koff of 0.000172 s⁻¹ and a kon of 120000 M⁻¹ s⁻¹.

B8: DVD508 (bispecific antibody, human IgG1, kappa)
heavy: not shown
light: B7 light
notes: HC linker short, LC linker long; also called DVD-Ig DVD508
As to B8, in assay [1], binding was put at a Kd of 1.7 nM, the off-rate (koff) was 0.000167 s⁻¹ and the kon is 98400 M⁻¹ s⁻¹.

B9: DVD480 (bispecific antibody, human IgG1, kappa)
heavy: not shown
light: DIQMTQSPSSLSASVGDRVTITCRASQVIRRSLAWYQQKPGKAPKLLIYAASNLASGVPSRFSGSGSGTDFTLTISSLQPEDFATYYCQQSNTSPLTFGQGTKVEIKRTVAAPDIQMTQSPSSLSASVGDRVTITCRASQDVSTAVAWYQQKPGKAPKLLIYSASFLYSGVPSRFSGSGSGTDFTLTISSLQPEDFATTYYCQQSYTGTVTFGQGTKVEIKRTVAAPSVFIFPPSDEQLKSGTASVVCLLNNFYPREAKVQWKVDNALQSGNSQESVTEQDSKDSTYSLSSTLTLSKADYEKHKVYACEVTHQGLSSPVTKSFNRGEC
notes: DVD-Ig; N-term; VD AB071 (VEGF), C-term; VD AB015 (DLL4); HC linker long, LC linker short; also called DVD480H; DVD480L
In assay [2], B9 yielded a Kd of 0.302 nM, a koff of 4.91e-05 s⁻¹ and a kon of 162000 M⁻¹ s⁻¹.

B10: DVD474 (bispecific antibody, human IgG1, kappa)
heavy: not shown
light: DIQMTQSPSSLSASVGDRVTITCRASQVIRRSLAWYQQKPGKAPKLLIYAASNLASGVPSRFSGSGSGTDFTLTISSLQPEDFATYYCQQSNTSPLTFGQGTKVEIKRTVAAPSVFIFPPDIQMTQSPSSLSASVGDRVTITCRASQDVSTAVAWYQQKPGKAPKLLIYSASFLYSGVPSRFSGSGSGTDFTLTISSLQPEDFATTYYCQQSYTGTVTFGQGTKVEIKRTVAAPSVFIFPPSDEQLKSGTASVVCLLNNFYPREAKVQWKVDNALQSGNSQESVTEQDSKDSTYSLSSTLTLSKADYEKHKVYACEVTHQGLSSPVTKSFNRGEC
notes: DVD-Ig; N-term; VD AB071 (VEGF), C-term; VD AB015 (DLL4); HC linker long, LC linker long; also called DVD474H; DVD474L
Turning to B10, in assay [2], the Kd came out at 0.00144 nM.

B11: DVD486 (bispecific antibody, human IgG1, kappa)
heavy: not shown
light: B10 light
notes: DVD-Ig; N-term; VD AB071 (VEGF), C-term; VD AB015 (DLL4); HC linker short, LC linker long; also called DVD486H; DVD486L
B11 gave a Kd in assay [2] of 0.371 nM.

B12: DVD520 (bispecific antibody, human IgG1, kappa, lambda)
heavy: not shown
light: DIQMTQSPSSLSASVGDRVTITCRASQDVSTAVAWYQQKPGKAPKLLIYSASFLYSGVPSRFSGSGSGTDFTLTISSLQPEDFATYYCQQSYTTPPTFGQGTKVEIKRTVAAPSVFIFPPQAVVTQESALTTSPGETVTLTCRSSTGAVTTSNYANWVQEKPDHLFTGLIGGTNNRAPGVPARFSGSLIGDKAALTITGAQTEDEAIYFCALWYSNHWVFGGGTKLTVLGQPKAAPSVTLFPPSSEELQANKATLVCLISDFYPGAVTVAWKADSSPVKAGVETTTPSKQSNNKYAASSYLSLTPEQWKSHRSYSCQVTHEGSTVEKTVAPTECS
notes: HC linker long, LC linker long; also called DVD-Ig DVD520
Take B12: in assay [1], the dissociation constant Kd worked out at 3.3 nM, the koff came out at 0.000408 s⁻¹ and the association rate constant (kon) stood at 124000 M⁻¹ s⁻¹.

B13: DVD532 (bispecific antibody, human IgG1, kappa, lambda)
heavy: not shown
light: B12 light
notes: HC linker short, LC linker long; also called DVD-Ig DVD532
Consider B13, for which, in assay [1], the dissociation constant (Kd) is 6.85 nM, the koff worked out at 0.00081 s⁻¹ and the kon was 118000 M⁻¹ s⁻¹.

B14: DVD452 (bispecific antibody, human IgG1, kappa, L234A L235A)
heavy: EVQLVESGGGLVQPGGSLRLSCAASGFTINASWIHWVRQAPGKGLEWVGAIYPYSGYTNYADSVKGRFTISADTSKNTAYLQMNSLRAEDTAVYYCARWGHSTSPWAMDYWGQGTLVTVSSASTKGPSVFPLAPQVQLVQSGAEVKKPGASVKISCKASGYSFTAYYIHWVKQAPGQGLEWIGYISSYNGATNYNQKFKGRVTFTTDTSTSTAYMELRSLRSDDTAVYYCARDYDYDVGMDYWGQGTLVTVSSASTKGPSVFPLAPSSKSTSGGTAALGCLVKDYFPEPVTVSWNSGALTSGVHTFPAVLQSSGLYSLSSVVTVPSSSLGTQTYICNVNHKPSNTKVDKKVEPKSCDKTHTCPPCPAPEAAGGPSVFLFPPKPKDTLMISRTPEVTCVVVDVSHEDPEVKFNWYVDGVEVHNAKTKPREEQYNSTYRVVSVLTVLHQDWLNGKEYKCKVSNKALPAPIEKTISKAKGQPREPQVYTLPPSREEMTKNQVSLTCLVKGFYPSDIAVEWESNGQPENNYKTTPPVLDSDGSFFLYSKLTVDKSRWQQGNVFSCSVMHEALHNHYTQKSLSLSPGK
light: DIQMTQSPSSLSASVGDRVTITCRASQVIRRSLAWYQQKPGKAPKLLIYAASNLASGVPSRFSGSGSGTDFTLTISSLQPEDFATYYCQQSNTSPLTFGQGTKVEIKRTVAAPSVFIFPPDIVMTQSPDSLAVSLGERATISCRASESVDNYGISFMKWFQQKPGQPPKLLIYAASNQGSGVPDRFSGSGSGTDFTLTISSLQAEDVAVYYCQQSKEVPWTFGGGTKVEIKRTVAAPSVFIFPPSDEQLKSGTASVVCLLNNFYPREAKVQWKVDNALQSGNSQESVTEQDSKDSTYSLSSTLTLSKADYEKHKVYACEVTHQGLSSPVTKSFNRGEC
notes: DVD-Ig; N-term; VD AB071 (VEGF), C-term; VD AB069 (DLL4); HC linker long, LC linker long; also called DVD452H; DVD452L
On to B14, for which, in assay [2], the Kd was determined as 0.000155 nM, the koff amounted to 1.61e-08 s⁻¹ and the kon was found to be 104000 M⁻¹ s⁻¹.

As a reminder, the Kd is a measure of binding affinity in units of concentration. Read a high Kd as weaker binding. By koff is commonly meant the first-order rate constant of dissociation. A low value points to slow dissociation. For orientation: kon means a measure of how fast the partners come together.
